Ten molecules from patent publication US20160272707A1 (COMPUGEN, published 2016) can be followed below.

Assay [1] has as its target T1, mouse VSTM5 (SEQ ID NO:11) expressed on HEK-293T cells (mouse, UniProt Q9D806 28-199).
T1 construct: also called mouse VSTM5 untagged
T1 sequence: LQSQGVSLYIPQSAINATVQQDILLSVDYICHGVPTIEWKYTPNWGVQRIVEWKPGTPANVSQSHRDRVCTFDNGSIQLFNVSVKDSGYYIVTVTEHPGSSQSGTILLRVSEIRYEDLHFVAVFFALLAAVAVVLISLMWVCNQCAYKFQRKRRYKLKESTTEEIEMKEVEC
Description: FACS titration on 293-muVSTM5 cells, panel 'Ab binding vs. mouse VSTM5'.

Assay [2] has as its target T2, VSTM5 monomer (UniProt A8MXK1 29-147, limits assumed).
T2 construct: also called monomeric VSTM5 antigen; VSTM5 antigen
T2 sequence (looked up): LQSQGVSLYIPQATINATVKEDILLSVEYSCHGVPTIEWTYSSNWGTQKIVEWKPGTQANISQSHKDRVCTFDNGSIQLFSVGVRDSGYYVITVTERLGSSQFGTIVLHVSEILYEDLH
Description: SPR, VSTM5 monomer binding to the IgG (equilibrium binding constant).

For assay [3], the target named is T2, VSTM5 monomer. Description: SPR, VSTM5 monomer binding to the IgG. A general note: SPR reads the build-up and loss of mass on a sensor chip optically.
Assay [4] has as its target T3, human VSTM5-EGFP (SEQ ID NO:133) expressed on HEK-293 cells (human).
T3 construct: Full-length human VSTM5 fused at its C-terminus to EGFP; also called VSTM5_GFP
Description: FACS, IgG1 at 22 nM on 293-huVSTM5 (VSTM5-EGFP) cells; grade from ratio to 293-MT control cells (>2000). (In general: In flow cytometry, cells or beads pass a laser one at a time.)

The target of assay [5] is T3, human VSTM5-EGFP (SEQ ID NO:133) …. Briefly: FACS titration of the human IgG1 on 293-huVSTM5 cells, 293-MT control cells as open squares; y axis MFI (anti-Human A647).
Assay [6] shares this target. Description: FACS, IgG1 at 22 nM on 293-huVSTM5 (VSTM5-EGFP) cells; grade from ratio to 293-MT control cells (<50).
The target is the same in assay [7]. Description: FACS, IgG1 at 22 nM on 293-huVSTM5 (VSTM5-EGFP) cells; grade from ratio to 293-MT control cells (400-850). As for the experimental part: Empty vector control cells and human VSTM5 EGFP suspension 293 cells were pelleted and stained in 50 μl of the indicated concentrations of anti-VSTM5 antibodies or isotype controls in FACS buffer at 4° C. for 60 mins. Cells were washed once in FACS buffer, re-suspended in 50 μl of 1:250 dilution of biotinylated anti-human IgG (Jackson cat#109-065-097) for 30 mins at 4° C. Cells were washed in FACS buffer, re-suspended in 50 μl of 1:100 dilution of SA-PE (Jackson cat#016-110-084) for 30 mins. Cells were washed twice and re-suspended in a final volume of 100 μl of FACS buffer. Samples were read on the Intellicyt HTFC. Data was analyzed by FCS Express (DeNovo, Calif., USA), exported to Excel (Microsoft, WA, USA) and plotted in GraphPad Prism® (GraphPad Software, Inc., CA, USA).

The target is the same in assay [8]. Briefly: FACS titration of the human IgG1 on 293-huVSTM5 cells, 293-MT control cells as open squares; y axis MFI (anti-Human A647). The source holds these as a separate data set.
The target is the same in assay [9]. Briefly: FACS, IgG1 at 22 nM on 293-huVSTM5 (VSTM5-EGFP) cells; grade from ratio to 293-MT control cells (50-400).
The target is the same in assay [10]. Briefly: FACS, IgG1 at 22 nM on 293-huVSTM5 (VSTM5-EGFP) cells; grade from ratio to 293-MT control cells (850-2000).

Like-named read-outs stand apart in the source and are kept apart here.

B1: 49-01.F05 (antibody, V domains shown)
VH: QVQLQQWGAGLLKPSETLSLTCAVYGGSFSGYYWSWIRQPPGKGLEWIGEINHSGSTNYNPSLKSRVTISVDTSKNQFSLKLSSVTAADTAVYYCARGWRGGSFMDVWGQGTTVTVSS
VL: QSALTQPRSVSGSPGQSVTISCTGTSSDVGGYNYVSWYQQHPGKAPKLMIYDVIKRPSGVPDRFSGSRSGNTASLTISGLQAEDEADYYCCSYAGTHWVFGGGTKLTVLG
As usually defined, the Kd is the free concentration of one partner at which half of the binding sites on the other are occupied at equilibrium, for simple one-to-one binding. A high value points to weaker binding. Regarding B1, in assay [1], the binding result is on record as “no binding”. Also, the Kd with VSTM5 monomer [2] and with VSTM5 monomer [3] was 190 nM in each case. Moreover, the “ratio of 293-huVSTM5 cell binding / 293-MT control cell binding (FACS) at 22 nM mAb” value in [4] is over 2000 ratio.

B2: 49-01.D06 (antibody, V domains shown)
VH: QVQLVQSGAEVKKPGTSVKVSCKASGYTFTTYTMHWVRQAPGQRLEWMGWINTGNGNTKYSQKFQDRVTITRDTSASTAYMELSSLKFEDTAVYYCAREGVTIFGDHSYYYGMDVWGQGTTVTVSS
VL: QPVLTQSSSASASLGSSVKLTCTLSSGHSSYIIAWHQQQPGKAPRYLMKLEGSGSYNKGSGLPDRFSGSSSGADRYLTISNLQSEDEADYYCETWDGNTWVFGGGTQLTVLG
With B2, in assay [1], the binding result is recorded as “no binding”. Moreover, in [4], the “ratio of 293-huVSTM5 cell binding / 293-MT control cell binding (FACS) at 22 nM mAb” value was over 2000 ratio.

B3: 49-01.F01 (antibody, V domains shown)
VH: EVQLVESGGGVVKPGESLRLLCTASGLSFNKYSINWVRQAPGGGLEWVSSIESGSGHIYYADSLEGRFTISRDNAKNSVTLEMNSLRVEDTALYYCVSGPEDKWLLQLYFESWGQGTLVTVSS
VL: EIVLTQSPATLSLSPGERATLSCRTSQSSPSDNLAWYQHKPGQAPRLLIYGGSNRATGIPARFSGSGSGTDFTLTISSLEPEDFAVYYCQQYGSSPLTFGGGTKVDIKR
For orientation: EC50 (read off the curve) means the concentration needed to bring the measured effect to its halfway point. Read a low EC50 (read off the curve) as a more potent agent. B3: the binding result in [1] was “no binding”. For the same molecule, the Kd with VSTM5 monomer [2] and with VSTM5 monomer [3] was 2 nM each time. Besides, the 50% effective concentration (EC50 (read off the curve)) in assay [5] was about 1 nM. Further, in assay [4], the “ratio of 293-huVSTM5 cell binding / 293-MT control cell binding (FACS) at 22 nM mAb” value is over 2000 ratio.

B4: 52-01.A07 (antibody, V domains shown)
VH: EVQLVESGGGLVQPGRSLRLSCAASGFTFSSYAMHWVRQAPGKGLEWVAVISYDGSNKYYADSVKGRFTISRDNSKNTLYLQMNSLRAEDTAVYYCASKRELHSFDYWGQGTLVTVSS
VL: DVVMTQSPLSLPVTPGEPASISCRSSQSLLQSNGHNYLNWYLQKPGQSPQVLIYLASNRASGVPDRFSGSGSGTDFTLKISRVEAEDVGIYYCMQGLQIPLTFGGGTKVEIKR
Turning to B4, the binding result in assay [1] was “no binding”. In addition, the “ratio of 293-huVSTM5 cell binding / 293-MT control cell binding (FACS) at 22 nM mAb” value in assay [6] was under 50 ratio.

B5: 50-01.F03 (antibody, V domains shown)
VH: EVQLVEIGGGLIQPGRSLRLSCAASGFTFSSYAMHWVRQAPGKGLEWVAVISYDGSKKYYADSVKGRFTISRDNSKNTVHLQMNSLRVEDTAVYYCALLSRPHYGLDVWGQGTTVTVSS
VL: QSVLTQPPSVSAAPGQKVTISCSGSRSNVGGNFLSWYQHVPGTPPQLLIYDNYKRPSEIPDRFSGSKSGTSATLDITGLQTGDEADYYCGTWDSSLSSWVFGGGTQLTVLG
On to B5, for which the “ratio of 293-huVSTM5 cell binding / 293-MT control cell binding (FACS) at 22 nM mAb” value in assay [7] fell in the range of 400 to 850 ratio. In addition, the binding result in [1] is “no binding”. Also, in assay [8], the “EC50 (read off the curve)” value was about 0.7 nM.

B6: 50-01.D01 (antibody, V domains shown)
VH: QVQLVESGGGVVQPGRSRRLSCAASGFAFRNYGMHWVRQAPGKGLEWVAFISQNGGKKYYADSVTGRFTVSRDNSKNTLYLQINSLTTDDTAVFYCARSGSGSWGYSDFPGPFDHWGQGSLVTVSS
VL: EIVLTQSPGTLSLSPGERATLSCRASQNIFISFLAWYQQKPGQAPRLLLYGASNRATGIPDRFSGSGSGTDFTLTISRLEPEDFAVYYCQQYGSSPLTFGGGTKVEIKR
notes: also called 50-01.001
In the case of B6, the “ratio of 293-huVSTM5 cell binding / 293-MT control cell binding (FACS) at 22 nM mAb” value in [7] lay within 400 to 850 ratio. Besides, the binding result in assay [1] is given as “no binding”. Further, in assay [5], the 50% effective concentration (EC50 (read off the curve)) is about 0.6 nM.

B7: 50-01.A04 (antibody, V domains shown)
VH: QVQLVQSGAEVKKPGESLKISCKGSGYDFNNYWIGWVRQTPEKGLEWMGIVYPGDHPGDYHIRYGPSFQGQVTISADRSITTAYLQWRNLKASDTAMYYCARLGSSKDLDYWGQGTLVTVSS
VL: EIVLTQSPATLSLSPGERATLSCRASQSVSGHLDWYQQKPGQSPRLLIYDASNRATGIPARFSGSGSGTDFSLTISSLEPEDFAVYYCQHRSNWPWTFGQGTKVEIKR
With B7, in assay [9], the “ratio of 293-huVSTM5 cell binding / 293-MT control cell binding (FACS) at 22 nM mAb” value lay in the range of 50 to 400 ratio. The binding result in assay [1] was “no binding”. Moreover, the dissociation constant (Kd) with VSTM5 monomer [2] and in the assay with VSTM5 monomer [3] was 52.8 nM in each case.

B8: 47-01.D05 (antibody, V domains shown)
VH: QITLKESGPTLVKPTQTLTLTCTFSGFSLSTSGVGVGWIRQPPGKALEWLALIYWDDDKRYSPSLKSRLTITKDTSKNQVVLTMTNMDPVDTATYYCAHSGSVGYALYFDYWGQGTLVTVSS
VL: QAVLTQPPSSSASPGESARLTCTLPSDINVRYYNIYWYQQKPGSPPRYLLYYQSDSHKGRGSGVPSRFSGSKDTSANTGILLISGLQSEDEADYYCMIWASNGSGVLGGGTQLTVLG
Take B8: in assay [7], the “ratio of 293-huVSTM5 cell binding / 293-MT control cell binding (FACS) at 22 nM mAb” value was 400 to 850 ratio. Further, the binding result in assay [1] is given as “no binding”. The dissociation constant Kd in the assay with VSTM5 monomer [2] and with VSTM5 monomer [3] was 60.7 nM throughout. Further, the half-maximal effective concentration (EC50 (read off the curve)) in assay [8] was about 2 nM.

B9: 49-02.C11 (antibody, V domains shown)
VH: EVQLVESGGGLVQPGGSLRLSCAASGFTFSSYAMTWVRQAPGKGLEWVSVISGGGGTTYYADSVKGRFTISRDNSKNTLYLQMSSLRAEDTAVYYCAKGYSSGWPYYFDYWGQGTLVTVSS
VL: EIVLTQSPGTLSLSPGERATLSCRASQSGVTNFLAWYQQKPGQAPRLLIYATSSRATGIPDRFSGSASGTDFTLTITRLEPEDFAVYFCQQYASSPLTFGGGTKVEIKR
notes: also called 49-02.011
In the case of B9, the “ratio of 293-huVSTM5 cell binding / 293-MT control cell binding (FACS) at 22 nM mAb” value in [10] lay in the range of 850 to 2000 ratio. Also, the binding result in assay [1] was “no binding”.

B10: 50-01.E02 (antibody, V domains shown)
VH: QVQLVESGGGVVQPGGSLKLSCVASGFTFSAYAMNWVRLVPGKGLEWVSGISGNGYSTFYPDSVQGRFTVSRDNSKNTLFLQIDRLTGGDTAIYYCAKVQTTVITPFQNWGQGTLVTVSS
VL: EIVLTQSPGTLSLSPGERATLSCRASQNIGSNFLAWYQQKPGQAPRLLIYGASTRANGIPDRFSGSKSETDFTLTISRLEPEDFAVYYCQQYDNSPYTFGQGTKLEIKR
Take B10: in assay [10], the “ratio of 293-huVSTM5 cell binding / 293-MT control cell binding (FACS) at 22 nM mAb” value lay within 850 to 2000 ratio. In assay [1], the binding result is “no binding”. For the same molecule, the concentration for a half-maximal effect (EC50 (read off the curve)) in [5] is about 1 nM.
